According to a protein production outcome set (Wang et al. 2014):

Assay: label from the status in PepcDB records
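Note: failed if final PepcDB status was selected cloned or expressed and not failed if soluble or beyond.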

| Sequence | protein production |
| --- | --- |
| MSISRRDFNKLLLAGAAGSAFGLFGSGNTAFAARKRVVVIGGGFGGAATAKYLKKLDPTLAVTLIEPKPAFVTCPFSNWVLGGLRTMKDITHTYTALRTRHGVNVIADRVVSVDAAKGTLRLAGGRVIGYDRLVVSPGIDFKYDTIPGYSQKIAKSKMPHAWQAGPQTILLHRQLQAMKNGGTVVICPPDNPFRCPPGPYERASLIAYYLKQHKPKSKIVILDAKEKFSKQGLFTKGWESRYPGMIELRGSTGGGKVLGVDAKAMTVETDLGAVKGDVINVIPAQKAGKIAFEAGLTNEKGWCPVNPSSFESTIHQGIHVIGDACIAGAMPKSGFAASSQGKVAAVAIINLLRGQEPAPPSLVNTCYSLIGPKYGVSVAGVYQLSPTGIVEIPGSGGRLRPMPATNSWNRRRFSPKAGTPISARISGDKPLDSCGVPAVNHQAPLPLTHKATPDCRKR | failed |
| MSITLLTGIGEIFLGILLNVFIGKIVKIVFKKDGTLPRVPVRFIGITLILNGVGNMVHL | failed |
| MSKDLLFWLTILLVLISGYLSYRKKRIESLTTAGLAGGFALSFMLYEKFPVLFSFLLGFIATFAFEWTRKR | failed |
| MSKFKSHNSNNTKQTINKHALIFGLISVFLSGIGFTIISPVIPFLVQPYINNPGNQAIIVTLLTSVYAICMFFSAPGLGALSDKYGRRPVLLVCLLGSSIGYLIFGIGGALWVLFAGRIIDGITGGTISTIFAYFADIIPENERTKYFGWVSAVVGVGTIIGPTLGGLLAKFGYSVPLYFGAIITLLNVVYGFFFMPESLDKNIRLKEITFVRLNPFTQLANLLSIKSLKRLLISAFLLWIPNGSLQAVFSQFTIDTFSWKPAIIGLMFSIMGFQDIISQSLIMPKLLVKLSDKYIAILGMISEVIGYSLIAASALFYFYPLFIAGMFIFGFGDSIFGPSFNGMLSKSVDSSEQGRIQGGSQSIQALARMIGPIIGGQIYVSLGHATPAFMGIVLITVAIPVLYKNIHINI | failed |
| MSKGYGVFGHVPDNADDDDLLPYEDDDSGVSWGHALRRRNPWKRGGDEGADYDDDRYGADDTDDTDDTNEDRSLFAGKSSGIGGISGEADGMLGGAGAAGSRAVTFGGTDSLSAADAVMPYRFRQGRSVWFEDEDEGHFAGAAKRAEAHAVPILALRNDVESSSSNAVLARARSIARKAATMVINPVYSENHRTGYAELDGILRGTTSPSSKYRTSVQFDLDTGEAVGGKCSCPAYGRGYGMCKHMIALAFIFCDDPQRFEGYRAGAVRPSRTLIDYMEHVDRQDAQAKARRRNALMRRFDTAKGRNGAGGRHTNSGYGSRAGTRGGGYQGDSETVGLGQVQLVPILSFIDGVWSVEFKIGSTSNGSSYVLKSIPQFVLTMANGDYTDYGQKLAFTHTPDMFDDDSRPLLGFLDDAMAVRRAAEQQDRYYGHIAIDRHLTLSAPEVARLLSVREGRGVQLVLNTWFSGQPASVPVDGGEPDFLMRIARRDFNTYGPDAGYLLTGVPAVETVIDGGKNVWLLLASANPAGVVSAMMAGSQRKSAAGCRFVRCPKRLIPLRGLLGDMFEPDGEGQVIAGDDIALFARTLLPQLVGAGLLEASEIPRELAELSPTECSLQFYLDRDEHGVQCEVKARYGDAIVPLLPDGPTVHARDERSIPLSRGVIGRDFDAEHLAIDVVREFFTMPDQRKRVAAATHQTVNGFRTPAARKTAKQFVPDAATIDRDDTTQIVRLFDEGLPALKEVGEVFTTPAFDRLIAPKPPSVKVGLSIKGNLVEISPLADEVPPDEVGALLSSYRRRQRFHQLKDGTLVKLSGANLSTLDRLASDLDLSEQQLNSGLIELPGGRAFLLDGELPDDGSDVVKDASFTEYIDDLKIIDPKSYEVPDSLKHILRPYQVEGFQWLNTLCDKGFGGILADEMGLGKSVQLIALLLSRYHNESSGMPTAQGMDAGNAGNSESAVTGHITFDSEDGGSHPSLIVCPASLVYNWGAEFAKFAPSFNAVVVAGTKAERRTAIGRAFRADEPTVLITSYDLLRRDVDDYTANEQRFNVMALDEAQYIKNHTTKIAKAVKAVAADHRFALTGTPIENRLSELWSIFDFLMPGLLGSYKRFHERYELPISNARAADGSTAEGRAAAQVNPEAARVSRQLQSLVGVFIKRRLKSQVLTDLPDKLETTLTVQLAGEQRKLYAAHEQRLRMQLEHSEEADFNTSKIRILAELTKLRQICCDPRLLYADAKDQSAKLAAITELVETCVNEGKKALIFSQFTSFLDLIAERFDAQGLRYYTITGSTPKKKRLELVDQFNADDTPAFLISLKAGNTGLNLTGASVVIHADPWWNAAAQDQATDRAHRIGQTEDVNVYQVVAKDTIEERILELQHTKSELARQFTDASLLADEAGTGASALTEAPASIATLTKDDLLNLLG | failed |
| MSKHTKFSPEVRDRAIRMVYEVRESRTSQWAAIEAVASKIGCTAQTLSSWIRKAAAPAAPSASGTDARVKELEREVRELKRANEILKVASAFSAQAELDRRLK | failed |
| MSKIAIIVDSSSYIPKDQLKKHHIYVIDNPIIFGETIYHEFNWPVNADFYQQMATTPIQPTTSQPAPGDFEAAFQAAKDDGYKQALVITLSSGFSGTFLNTSAIASSHSDIDIHVWDSRIACLGAGNQALLAAYLAEKGIGIDEILSKLQILRSRTGVFFVVDSISHLQRTGRLSGGQALVAGLLNIKPILNINTNKQGKIDAVAKTRKMSGAWRYIEKHFAKIADNYQRAGWPMRVSILDADNPELADAWLKRAEKRWPEIIFERGIIGPLVGVHIGGKAVGLIWAEDYKRLED | failed |
| MSKIASEVVATTLNDWYIAIKKQKVDESIKYYSEIKKLFDEMEEDQEVLAYYSLLEERHKMLLHSSRGEPLQKHTYFTEDNQNFITKTNDKLEYNFYLFEAMYEAYNKNYDRAINLYGLAEKKLAEIPDEIEAAEFYSKVSYLYTLVKQSIVAQHYIKNAISIYKRHPDYKCKLATSTMIAAANYADMKRFEEAEQYYLEAIDIAKETKDEFLKAQLFHNLSIVYSDWNKPDKCIESLEKAIGNESWLHSIYYINSLFMMIKELFKIDEKMKAINFYNKAQERLILMENKVYEAKISILYNLYCGELKNNFNNCISNIEFLKQQNELESVDELSYIAAKRFESIGAFEEATSFFNAKIWAEQKMNQVEGIL | failed |
| MSKIEIFEAAGCCATSSVVVSDEAVKWNASAEWAKKHGVNIQRYSLAKNPQQFLNTPVIRAFLNTSGMESLPATLLDGQLVMAGKLPSREDIARWAGISLTQDWNEDSTQPRCCSIPRMP | failed |
| MSKIKWSNLWKGFAMGTTDLVPGVSGGTIALLLGIYDDFIRSISGLFSKRFWESLKFLLPIGIGMVVAIGLLSKLINYLLSTHTVPTMFFFVGLIGGIIPYLLKTSRFKHTFTTPHYLLLVVGIIVIVMMTVMNSGDKHAGETLSLSTGLILKYFIAGACASSAMLLPGISGSFMLLVFGVYGTIMYAISEFVSLNFAALPILITVGCGVLFGFLCSSKLIQYLLSYYTYLTYALIIGFVIGSLYAVFPGLPSTIMIWIVSIVTLLLGFVISYRLGRLTAD | failed |
| MSKKGFFEYKLSKEIVRALTGLGYDHPTEVQGEVIPVALQKKDLVVKSQTGSGKTASFGIPLCEMVEWEENKPQALVLTPTRELAVQVKEDITNIGRFKRIKAAAIYGKSPFARQKLELKQKTHIVVGTPGRVLDHIEKGTLSLERLKYLVIDEADEMLNMGFIDQVEAIIDELPTNRMTMLFSATLPEDVERLSRTYMNAPTHIEIKAAGITTDKIEHTLFEAIEDEKFSLLKDVTTIENPDSCIIFCRTQENVDHVYRQLKRANYPCDKIHGGMVQEDRFEVMDDFRKGKFRYLVATDVAARGIDIDNITHVINYDIPLEKESYVHRTGRTGRAGNSGKAITFITPYENRFLEEIEEYIGFEIPKAIGPSKEEVMKGKAAFEEKIHAKPIIKKDKNADINKGIMKLYFNGGKKKKIRAVDFVGTIAKIKGVTAEDIGIITIQDNVSYVEILNGKGPLVLKVMKTTTIKGKQLKVHEAIK | failed |
| MSKKPPNRPGITFEIGARLEALDYLQKWYPSRIEKIDYEEGKMLVHFERWSHRYDEWIYWDSNRLRPLERPALRKEGLKDE | not failed |
| MSKKSVLITSLMLFSMFFGAGNLIFPPMLGLSAGTNYLPAILGFLATSVLLPVLAIIAVVLSGENVKDMASRGGKIFGLVFPIAAYLSIGAFYALPRTGAVSYSTAVGVDNALYSGLFNFVFFAVALALSWNPNGIADKLGKWLTPALLTLIVVLVVLSVAKLDGTPGEPSSAYAQQPAGAGLLEGYMTMDAIAALAFGIVVISAFKYQKVNKVRTATVVSAFIAGILLALVYLGLGSIGQVVNGEFADGTAILNYAALSTMGQAGRIMFVAILILACMTTAVGLISATSEFFNSLLPGVKYHVWATVFALISFGVATMGLDTVLAVAAPVISFIYPSAITLVFLSLIEPLLFRLKWTYLFGIWTAVVWALFMSIPALNPFIEWAPLHSMSLGWVVPVLVASAIGLAIDWNKKGAQSVAKKESISV | failed |
